Assay results: patent publication US20230295751, “Biological Detection Sensor Chip and COVID-19 Test Kit” (published 2023)

What was measured:
[1] = test system: Negative control virus without spike protein; assay: SPR; details: 5'-NH2 with 12C spacer
[2] = biological target: Bovine serum albumin (BSA) (Bos taurus, UniProt P02769 P02769:25-607); assay: SPR
Bovine serum albumin (BSA), sequence (P02769 25-607, one chain of several): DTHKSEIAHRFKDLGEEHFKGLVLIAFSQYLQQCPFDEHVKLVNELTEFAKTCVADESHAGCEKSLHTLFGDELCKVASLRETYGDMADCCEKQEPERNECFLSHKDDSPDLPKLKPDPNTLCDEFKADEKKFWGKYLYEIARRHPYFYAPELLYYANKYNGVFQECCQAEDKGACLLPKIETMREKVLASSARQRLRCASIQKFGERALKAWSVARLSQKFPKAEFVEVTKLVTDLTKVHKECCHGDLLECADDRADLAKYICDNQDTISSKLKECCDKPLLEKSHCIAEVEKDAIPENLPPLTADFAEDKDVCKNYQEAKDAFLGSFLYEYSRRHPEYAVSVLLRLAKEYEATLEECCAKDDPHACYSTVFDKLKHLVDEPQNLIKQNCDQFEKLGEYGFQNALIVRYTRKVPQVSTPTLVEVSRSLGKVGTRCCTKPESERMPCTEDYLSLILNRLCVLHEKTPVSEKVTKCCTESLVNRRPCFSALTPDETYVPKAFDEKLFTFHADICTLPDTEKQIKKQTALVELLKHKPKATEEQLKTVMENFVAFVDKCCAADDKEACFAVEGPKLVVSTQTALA

CAGCACCGACCTTGTGCTTTGGGAGTGCTGGTCCAAGGGCGTTAATGGACA [Capturing aptamer against SARS-CoV-2 SRBD]
binding [1]: 23 RU

B1: Capturing aptamer against SARS-CoV-2 SRBD (ssDNA)
DNA: CAGCACCGACCTTGTGCTTTGGGAGTGCTGGTCCAAGGGCGTTAATGGACA
modifications: 5'-NH2 with 12C spacer
binding result [2]: no binding
